# Test results reported in patent US20030054337A1.
# Experiments:
# [1] = molecular target: V12.Pf3.1 recombinant HBc chimer particle (hepatitis B virus, subtype ayw; Plasmodium falciparum); assay: particle ELISA, end point titer dilution of MoAb 2A10; reference V12.Pf3
# [2] = molecular target: V12.Pf3.3 recombinant HBc chimer particle (hepatitis B virus, subtype ayw; Plasmodium falciparum); assay: particle ELISA, end point titer dilution of MoAb 2A10
# [3] = molecular target: V12.Pf3.12 recombinant HBc chimer particle (hepatitis B virus, subtype ayw; Plasmodium falciparum); assay: as above
# [4] = molecular target: V12.Pf3.6 recombinant HBc chimer particle (hepatitis B virus, subtype ayw; Plasmodium falciparum); assay: as above
# [5] = molecular target: V12.Pf3 recombinant HBc chimer particle (hepatitis B virus, subtype ayw; Plasmodium falciparum); assay: as above
# [6] = molecular target: V12.Pf3.2 recombinant HBc chimer particle (hepatitis B virus, subtype ayw; Plasmodium falciparum); assay: as above
# [7] = molecular target: V12.Pf3.4 recombinant HBc chimer particle (hepatitis B virus, subtype ayw; Plasmodium falciparum); assay: as above
# [8] = molecular target: V12.Pf3.10 recombinant HBc chimer particle (hepatitis B virus, subtype ayw; Plasmodium falciparum); assay: as above
# [9] = molecular target: V12.Pf3.11 recombinant HBc chimer particle (hepatitis B virus, subtype ayw; Plasmodium falciparum); assay: as above
# [10] = molecular target: V12.Pf3.5 recombinant HBc chimer particle (hepatitis B virus, subtype ayw; Plasmodium falciparum); assay: as above
# [11] = molecular target: V12.Pf1 recombinant HBc chimer particle (hepatitis B virus, subtype ayw; Plasmodium falciparum); assay: as above
# [12] = molecular target: V12.Pf3.8 recombinant HBc chimer particle (hepatitis B virus, subtype ayw; Plasmodium falciparum); assay: as above
# [13] = molecular target: V12.Pf3.1 recombinant HBc chimer particle (hepatitis B virus, subtype ayw; Plasmodium falciparum); assay: as above
# [14] = molecular target: V12.Pf3.9 recombinant HBc chimer particle (hepatitis B virus, subtype ayw; Plasmodium falciparum); assay: as above
substance,measurement,setting,value
MoAb 2A10 (antibody),fold less antigenic than V12.Pf3,[1],5 fold
same,"Antigenicity (end point titer, normalized so that the lowest titer is 1)",[2],5 fold
same,"Antigenicity (end point titer, normalized so that the lowest titer is 1)",[3],5 fold
same,"Antigenicity (end point titer, normalized so that the lowest titer is 1)",[4],5 fold
same,"Antigenicity (end point titer, normalized so that the lowest titer is 1)",[5],165 fold
same,"Antigenicity (end point titer, normalized so that the lowest titer is 1)",[6],33 fold
same,"Antigenicity (end point titer, normalized so that the lowest titer is 1)",[7],5 fold
same,"Antigenicity (end point titer, normalized so that the lowest titer is 1)",[8],1 fold
same,"Antigenicity (end point titer, normalized so that the lowest titer is 1)",[9],5 fold
same,"Antigenicity (end point titer, normalized so that the lowest titer is 1)",[10],5 fold
same,"Antigenicity (end point titer, normalized so that the lowest titer is 1)",[11],33 fold
same,"Antigenicity (end point titer, normalized so that the lowest titer is 1)",[12],5 fold
same,"Antigenicity (end point titer, normalized so that the lowest titer is 1)",[13],33 fold
same,"Antigenicity (end point titer, normalized so that the lowest titer is 1)",[14],5 fold
